These results are taken from paper PMC5916898, “Global profiling of protein–DNA and protein–nucleosome binding affinities using quantitative mass spectrometry”.

One data set addresses ZFHX3 (Homo sapiens, UniProt Q15911). The data set can be described thus: pulldown; 150 mM NaCl, 50 mM Tris pH 8, 0.25% NP-40, 1 mM TCEP; 4 C, 2 h; 100 ug HeLa nuclear lysate. The settings on record: protein: extract; label: 5' biotin (strand 1).
The next data set deals with KLF16 (Homo sapiens, UniProt Q9BXK1). Described as above. The settings on record: protein: extract; label: 5' biotin (strand 1).
The target in the next data set is ZNF787 (Homo sapiens, UniProt Q6DD87). The data set is described as above. To be noted: protein: extract; label: 5' biotin (strand 1).
The target in another data set is DLX3 (Homo sapiens, UniProt O60479). The description is as above. The settings on record: protein: extract; label: 5' biotin (strand 1).
In a further data set the target is T1, VEZF1 (Homo sapiens, UniProt Q14119).
T1 sequence: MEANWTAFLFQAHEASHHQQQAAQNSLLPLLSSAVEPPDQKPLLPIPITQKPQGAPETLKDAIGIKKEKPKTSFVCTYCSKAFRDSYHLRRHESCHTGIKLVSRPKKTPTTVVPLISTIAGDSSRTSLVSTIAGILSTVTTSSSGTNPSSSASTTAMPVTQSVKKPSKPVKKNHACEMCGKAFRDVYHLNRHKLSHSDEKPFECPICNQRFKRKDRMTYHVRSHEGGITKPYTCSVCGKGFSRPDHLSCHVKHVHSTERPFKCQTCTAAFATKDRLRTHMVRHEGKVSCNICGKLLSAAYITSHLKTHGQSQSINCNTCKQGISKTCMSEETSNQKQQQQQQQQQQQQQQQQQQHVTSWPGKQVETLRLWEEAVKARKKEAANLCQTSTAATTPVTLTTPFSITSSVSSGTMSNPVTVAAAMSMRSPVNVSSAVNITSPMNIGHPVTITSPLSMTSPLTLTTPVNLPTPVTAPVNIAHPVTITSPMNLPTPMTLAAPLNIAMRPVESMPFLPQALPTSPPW
The data set is described as above. The settings on record: protein: extract; label: 5' biotin (strand 1).

Another data set concerns the target GATA2 (Homo sapiens, UniProt P23769). The description is as above. To be noted: protein: extract; label: 5' biotin (strand 1).
In a further data set the target is SP1 (Homo sapiens, UniProt P08047). Described as above. The settings on record: protein: extract; label: 5' biotin (strand 1).
A further data set deals with RREB1 (Homo sapiens, UniProt Q92766). Described as above. To be noted: protein: extract; label: 5' biotin (strand 1).
A further data set deals with T2, BBX (Homo sapiens, UniProt Q8WY36).
T2 sequence: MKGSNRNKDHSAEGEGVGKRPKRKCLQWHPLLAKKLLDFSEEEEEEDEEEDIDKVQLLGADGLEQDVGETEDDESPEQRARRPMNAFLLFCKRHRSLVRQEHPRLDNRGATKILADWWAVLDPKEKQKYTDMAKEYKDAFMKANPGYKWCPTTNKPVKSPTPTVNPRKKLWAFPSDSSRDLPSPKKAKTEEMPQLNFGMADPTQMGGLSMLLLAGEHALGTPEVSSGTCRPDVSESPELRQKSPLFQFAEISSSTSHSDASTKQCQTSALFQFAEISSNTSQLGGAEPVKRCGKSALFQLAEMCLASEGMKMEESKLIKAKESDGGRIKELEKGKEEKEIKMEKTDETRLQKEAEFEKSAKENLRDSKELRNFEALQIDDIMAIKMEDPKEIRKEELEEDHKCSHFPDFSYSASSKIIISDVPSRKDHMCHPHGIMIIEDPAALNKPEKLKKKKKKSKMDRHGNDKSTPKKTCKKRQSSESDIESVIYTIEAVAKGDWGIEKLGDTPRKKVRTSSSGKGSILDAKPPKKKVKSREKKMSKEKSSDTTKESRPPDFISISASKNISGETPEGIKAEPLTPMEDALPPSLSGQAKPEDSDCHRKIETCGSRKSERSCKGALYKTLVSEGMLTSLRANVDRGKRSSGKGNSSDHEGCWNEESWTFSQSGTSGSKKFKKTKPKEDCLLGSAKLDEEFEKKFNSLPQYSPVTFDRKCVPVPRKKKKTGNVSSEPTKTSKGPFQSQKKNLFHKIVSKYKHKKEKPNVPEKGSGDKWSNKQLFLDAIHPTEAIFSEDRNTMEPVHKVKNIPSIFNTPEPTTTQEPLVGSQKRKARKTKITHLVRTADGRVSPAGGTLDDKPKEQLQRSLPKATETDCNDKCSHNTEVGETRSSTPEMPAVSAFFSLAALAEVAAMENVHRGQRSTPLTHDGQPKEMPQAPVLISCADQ
The description is as above. To be noted: protein: extract; label: 5' biotin (strand 1).

The target in another data set is T3, SIX2 (Homo sapiens, UniProt Q9NPC8).
T3 sequence: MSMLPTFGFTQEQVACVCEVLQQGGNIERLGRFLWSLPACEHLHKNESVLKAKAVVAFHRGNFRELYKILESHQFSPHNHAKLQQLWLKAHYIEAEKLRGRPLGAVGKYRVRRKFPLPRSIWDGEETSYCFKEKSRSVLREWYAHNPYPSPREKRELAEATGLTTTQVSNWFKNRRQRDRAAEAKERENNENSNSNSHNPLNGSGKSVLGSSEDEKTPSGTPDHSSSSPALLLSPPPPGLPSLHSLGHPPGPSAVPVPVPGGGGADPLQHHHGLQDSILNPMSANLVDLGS
The description is as above. To be noted: protein: extract; label: 5' biotin (strand 1).

In a further data set the target is TGIF1 (Homo sapiens, UniProt Q15583). The description is as above. To be noted: protein: extract; label: 5' biotin (strand 1).
The target of another data set is TFAP2A (Homo sapiens, UniProt P05549). The description is as above. The settings on record: protein: extract; label: 5' biotin (strand 1).
The target of the next data set is ELF2 (Homo sapiens, UniProt Q15723). The data set is described as above. The settings on record: protein: extract; label: 5' biotin (strand 1).
In a further data set the target is SMARCB1-WHD (UniProt Q12824 1-113). The data set can be described thus: pull-down; Pull-down: 150 mM NaCl (or LiCl), 50 mM Tris pH 8, 0.25% NP-40, 1 mM TCEP, protease inhibitors, 4 C, 2 h; EMSA with lysate in same buffer, RT 15 min; FP in PBS, 25 C. To be noted: protein: recombinant; label: 5' biotin; G4.
For a further data set, the target named is T4, PHF10-DPF (UniProt Q8WUB8 379-481).
T4 sequence: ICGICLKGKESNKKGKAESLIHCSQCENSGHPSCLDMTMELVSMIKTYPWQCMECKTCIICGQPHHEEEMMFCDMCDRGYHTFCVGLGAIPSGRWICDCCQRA
The description is as above. To be noted: protein: recombinant; tags: GST; label: 5' biotin; G4.

A further data set has as its target ZBTB7A (Homo sapiens, UniProt O95365). The data set can be described thus: pulldown; 150 mM NaCl, 50 mM Tris pH 8, 0.25% NP-40, 1 mM TCEP; 4 C, 2 h; 100 ug HeLa nuclear lysate. The settings on record: protein: extract; label: 5' biotin (strand 1).
Another data set concerns the target ZBTB7B (Homo sapiens, UniProt O15156). The data set is described as above. The settings on record: protein: extract; label: 5' biotin (strand 1).

Sequence of RREB1 (Q92766 whole entry): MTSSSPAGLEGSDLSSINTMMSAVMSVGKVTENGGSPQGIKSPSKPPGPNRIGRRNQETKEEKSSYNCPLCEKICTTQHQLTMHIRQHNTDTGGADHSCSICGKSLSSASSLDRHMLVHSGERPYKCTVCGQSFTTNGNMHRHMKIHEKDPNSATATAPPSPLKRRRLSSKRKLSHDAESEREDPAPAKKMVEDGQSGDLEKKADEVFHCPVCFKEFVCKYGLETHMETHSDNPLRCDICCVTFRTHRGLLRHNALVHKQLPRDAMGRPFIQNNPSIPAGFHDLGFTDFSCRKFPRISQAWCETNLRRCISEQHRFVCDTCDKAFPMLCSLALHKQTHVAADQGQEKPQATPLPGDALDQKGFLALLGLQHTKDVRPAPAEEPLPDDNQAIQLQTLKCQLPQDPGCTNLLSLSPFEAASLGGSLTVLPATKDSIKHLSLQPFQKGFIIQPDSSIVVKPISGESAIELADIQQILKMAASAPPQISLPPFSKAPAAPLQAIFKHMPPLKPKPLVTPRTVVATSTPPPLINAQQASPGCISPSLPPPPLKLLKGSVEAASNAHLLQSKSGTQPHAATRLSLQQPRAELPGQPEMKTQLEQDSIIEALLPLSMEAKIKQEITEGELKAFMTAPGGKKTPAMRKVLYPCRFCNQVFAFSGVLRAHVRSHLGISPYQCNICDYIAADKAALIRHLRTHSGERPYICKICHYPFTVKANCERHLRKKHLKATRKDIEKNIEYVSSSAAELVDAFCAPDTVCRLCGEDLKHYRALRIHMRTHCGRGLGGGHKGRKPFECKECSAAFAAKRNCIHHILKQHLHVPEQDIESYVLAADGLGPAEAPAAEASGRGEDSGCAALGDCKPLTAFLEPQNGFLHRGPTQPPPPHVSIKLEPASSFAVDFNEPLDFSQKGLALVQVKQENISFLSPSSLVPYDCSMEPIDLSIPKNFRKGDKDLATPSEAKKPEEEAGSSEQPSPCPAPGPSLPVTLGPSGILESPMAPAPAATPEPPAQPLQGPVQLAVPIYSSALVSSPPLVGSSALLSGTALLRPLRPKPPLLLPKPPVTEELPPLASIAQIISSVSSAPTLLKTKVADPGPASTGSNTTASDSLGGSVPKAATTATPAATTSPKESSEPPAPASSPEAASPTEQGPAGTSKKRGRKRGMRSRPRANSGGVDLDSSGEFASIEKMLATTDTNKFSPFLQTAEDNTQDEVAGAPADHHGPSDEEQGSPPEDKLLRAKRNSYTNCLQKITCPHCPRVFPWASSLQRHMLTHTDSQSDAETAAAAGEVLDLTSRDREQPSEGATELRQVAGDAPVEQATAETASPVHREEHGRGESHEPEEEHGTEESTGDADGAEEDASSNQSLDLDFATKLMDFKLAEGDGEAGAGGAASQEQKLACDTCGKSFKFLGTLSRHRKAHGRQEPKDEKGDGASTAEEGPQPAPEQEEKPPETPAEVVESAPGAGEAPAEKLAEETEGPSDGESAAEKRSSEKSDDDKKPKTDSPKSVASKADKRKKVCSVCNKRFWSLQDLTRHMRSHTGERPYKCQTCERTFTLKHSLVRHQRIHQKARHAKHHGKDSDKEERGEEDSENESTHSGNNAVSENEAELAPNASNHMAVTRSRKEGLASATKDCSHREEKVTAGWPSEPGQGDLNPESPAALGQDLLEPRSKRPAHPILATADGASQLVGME
Sequence of ZBTB7B (O15156 whole entry): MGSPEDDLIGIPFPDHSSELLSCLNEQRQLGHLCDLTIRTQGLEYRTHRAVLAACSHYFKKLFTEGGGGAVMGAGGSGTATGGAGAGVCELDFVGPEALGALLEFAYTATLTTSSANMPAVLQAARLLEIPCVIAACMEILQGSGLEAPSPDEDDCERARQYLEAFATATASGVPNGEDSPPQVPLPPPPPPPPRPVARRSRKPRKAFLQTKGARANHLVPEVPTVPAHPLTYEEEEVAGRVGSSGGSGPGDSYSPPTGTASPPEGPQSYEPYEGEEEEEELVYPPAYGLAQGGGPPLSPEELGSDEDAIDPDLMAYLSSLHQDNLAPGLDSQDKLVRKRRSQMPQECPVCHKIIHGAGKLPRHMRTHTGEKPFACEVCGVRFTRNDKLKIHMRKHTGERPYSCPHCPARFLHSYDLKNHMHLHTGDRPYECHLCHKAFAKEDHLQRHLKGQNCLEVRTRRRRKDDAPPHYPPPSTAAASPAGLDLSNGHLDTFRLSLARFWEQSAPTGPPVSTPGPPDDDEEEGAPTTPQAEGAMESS
Sequence of TFAP2A (P05549 whole entry): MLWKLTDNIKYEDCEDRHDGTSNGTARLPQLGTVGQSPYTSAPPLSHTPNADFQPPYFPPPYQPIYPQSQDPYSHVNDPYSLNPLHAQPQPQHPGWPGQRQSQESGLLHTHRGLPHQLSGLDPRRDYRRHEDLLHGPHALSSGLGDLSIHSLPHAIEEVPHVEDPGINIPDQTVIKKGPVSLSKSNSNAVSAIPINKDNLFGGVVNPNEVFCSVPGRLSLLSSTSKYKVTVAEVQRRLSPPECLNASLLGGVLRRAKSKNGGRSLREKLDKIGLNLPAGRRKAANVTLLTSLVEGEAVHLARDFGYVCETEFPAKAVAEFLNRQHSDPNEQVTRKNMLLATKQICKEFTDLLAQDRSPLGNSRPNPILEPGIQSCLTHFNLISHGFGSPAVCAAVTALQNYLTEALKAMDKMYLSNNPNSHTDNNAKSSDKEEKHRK
Sequence of SP1 (P08047 whole entry): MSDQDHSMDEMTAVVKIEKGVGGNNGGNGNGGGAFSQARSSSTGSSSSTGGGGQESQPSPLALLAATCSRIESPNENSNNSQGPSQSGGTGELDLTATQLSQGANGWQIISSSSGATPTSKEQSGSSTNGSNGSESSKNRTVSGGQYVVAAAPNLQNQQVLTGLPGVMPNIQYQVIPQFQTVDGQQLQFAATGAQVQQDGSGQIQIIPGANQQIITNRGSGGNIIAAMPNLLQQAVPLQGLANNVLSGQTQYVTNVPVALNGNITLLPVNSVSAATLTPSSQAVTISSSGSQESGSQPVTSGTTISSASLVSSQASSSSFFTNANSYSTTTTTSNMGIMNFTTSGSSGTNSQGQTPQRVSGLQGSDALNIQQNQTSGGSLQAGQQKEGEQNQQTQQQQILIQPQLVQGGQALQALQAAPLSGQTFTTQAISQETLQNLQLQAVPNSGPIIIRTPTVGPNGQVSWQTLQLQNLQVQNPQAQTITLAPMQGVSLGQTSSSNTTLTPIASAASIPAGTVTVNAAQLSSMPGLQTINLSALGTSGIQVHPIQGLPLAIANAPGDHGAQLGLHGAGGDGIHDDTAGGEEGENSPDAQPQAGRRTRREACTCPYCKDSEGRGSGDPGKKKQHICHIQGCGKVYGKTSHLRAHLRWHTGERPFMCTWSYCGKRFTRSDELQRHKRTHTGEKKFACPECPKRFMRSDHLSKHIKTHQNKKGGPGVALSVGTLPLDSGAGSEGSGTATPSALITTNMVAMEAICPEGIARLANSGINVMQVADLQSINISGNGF
Sequence of KLF16 (Q9BXK1 whole entry): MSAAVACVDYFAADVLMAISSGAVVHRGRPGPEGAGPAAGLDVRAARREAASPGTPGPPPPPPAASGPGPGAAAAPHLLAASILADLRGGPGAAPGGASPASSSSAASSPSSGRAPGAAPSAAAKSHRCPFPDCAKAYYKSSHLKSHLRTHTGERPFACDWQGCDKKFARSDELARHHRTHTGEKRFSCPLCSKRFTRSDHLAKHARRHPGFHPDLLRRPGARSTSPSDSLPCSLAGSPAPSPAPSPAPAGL
Sequence of GATA2 (P23769 whole entry): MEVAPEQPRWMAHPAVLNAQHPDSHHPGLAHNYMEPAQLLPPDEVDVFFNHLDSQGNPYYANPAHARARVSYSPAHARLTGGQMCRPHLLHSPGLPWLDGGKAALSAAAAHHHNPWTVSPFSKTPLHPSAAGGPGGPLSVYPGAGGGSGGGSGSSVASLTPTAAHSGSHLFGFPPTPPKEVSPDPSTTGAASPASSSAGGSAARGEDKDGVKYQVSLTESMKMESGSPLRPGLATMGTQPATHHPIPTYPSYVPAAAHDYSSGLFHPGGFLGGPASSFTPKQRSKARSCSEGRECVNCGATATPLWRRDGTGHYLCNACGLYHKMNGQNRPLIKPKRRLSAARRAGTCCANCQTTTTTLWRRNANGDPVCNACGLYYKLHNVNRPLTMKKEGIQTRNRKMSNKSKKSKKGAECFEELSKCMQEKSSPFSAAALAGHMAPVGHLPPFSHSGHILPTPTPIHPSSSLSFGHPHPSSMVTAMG
Sequence of SMARCB1-WHD (Q12824 1-113): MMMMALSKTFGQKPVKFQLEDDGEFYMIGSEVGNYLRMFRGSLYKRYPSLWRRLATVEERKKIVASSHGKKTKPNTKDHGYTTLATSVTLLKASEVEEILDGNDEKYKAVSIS
Sequence of TGIF1 (Q15583 whole entry): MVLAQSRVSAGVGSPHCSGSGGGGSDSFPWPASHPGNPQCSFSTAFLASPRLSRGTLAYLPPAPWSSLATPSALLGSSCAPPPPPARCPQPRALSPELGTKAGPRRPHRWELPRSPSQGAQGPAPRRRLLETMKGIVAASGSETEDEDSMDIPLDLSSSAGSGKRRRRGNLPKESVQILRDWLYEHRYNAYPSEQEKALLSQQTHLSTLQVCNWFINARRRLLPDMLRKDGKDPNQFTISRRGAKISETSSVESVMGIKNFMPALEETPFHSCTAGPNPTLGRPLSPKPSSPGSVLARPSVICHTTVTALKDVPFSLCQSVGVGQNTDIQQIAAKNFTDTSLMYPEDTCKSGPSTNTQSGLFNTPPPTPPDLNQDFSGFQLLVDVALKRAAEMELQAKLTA
Sequence of DLX3 (O60479 whole entry): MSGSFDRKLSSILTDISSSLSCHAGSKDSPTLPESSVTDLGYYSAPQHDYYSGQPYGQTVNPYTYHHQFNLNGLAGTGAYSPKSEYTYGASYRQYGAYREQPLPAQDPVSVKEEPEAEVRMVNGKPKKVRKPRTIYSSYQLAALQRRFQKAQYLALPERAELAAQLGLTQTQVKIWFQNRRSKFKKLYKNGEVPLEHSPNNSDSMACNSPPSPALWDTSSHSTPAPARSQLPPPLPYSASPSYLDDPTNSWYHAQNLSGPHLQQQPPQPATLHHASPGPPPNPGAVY

B1: NF-Y (dsDNA)
DNA 1: ATTGACCAATCAGAGGTAGGATGAT
DNA 2: ATCATCCTACCTCTGATTGGTCAAT
For the molecule B1, the “apparent K (half saturation)” value in the data set with ZFHX3 is 56.9 nM; with KLF16, 200 nM; with ZNF787, 394 nM; with DLX3 it was 52.9 nM; with VEZF1 it was 249 nM; with GATA2, 126 nM. Besides, the “apparent K (half saturation)” value with SP1 was determined as 185 nM; in the data set with RREB1, 283 nM.

B2: AP-1 (dsDNA)
DNA 1: AGTCGGCTAGCTGACTCAGGATGTCC
DNA 2: GGACATCCTGAGTCAGCTAGCCGACT
In the case of B2, the “apparent K (half saturation)” value with BBX stood at 308 nM; with VEZF1 it was 255 nM; in the data set with SIX2, 59.9 nM; with TGIF1 it was 322 nM; with TFAP2A it was 363 nM; with ELF2, 205 nM. Further, the “apparent K (half saturation)” value in the data set with RREB1 worked out at 317 nM.

Consider TGGGGAGGGTGGGGAGGGTGGGGAAGG (structured_DNA) [mycG4 (Pu27)], for which the binding result is listed as “binds” with SMARCB1-WHD and “no binding” with PHF10-DPF.

B3: E-box (dsDNA)
DNA 1: GGAAGCAGACCACGTGGTCTGCTTCC
DNA 2: GGAAGCAGACCACGTGGTCTGCTTCC
As for B3, the “apparent K (half saturation)” value in the data set with ZBTB7A was 404 nM; with ZBTB7B, 405 nM.
